From US20250076311A1 (Chugai, published 2025)
Changes are numbered by the printed parent chain. Names may count otherwise.

B1: M103205H795-MY278 (heavy chain) with M103202L889-SK1 (light chain) (antibody, human IgG1, kappa, name in EU numbering)
heavy: QVTLKESGPVLVKPTETLTLTCTVSGIDLSHDDISWVRQAPGKGLEWVGIISYAGSTYYASWAKGRLTISKDTSKNQVVLTMTNMDPVDTATYYCARGVPAYSHGGDLWGQGTLVTVSSASTKGPSVFPLAPSSKSTSGGTAALGCLVKDYFPEPVTVSWNSGALTSGVHTFPAVLQSSGLYSLSSVVTVPSSSLGTQTYICNVNHKPSNTKVDKKVEPKSCDKTHTCPPCPAPELLMGPSVFLFPPKPKDTLMISRTPEVTCVVVDVSDEDPEVKFNWYVDGVEVHNAKTKPREELYNSTYRVVSVLTVLHQDWLNGKEYKCKVSNKALPKPIEKTISKAKGQPREPQVYTLPPSREEMTKNQVSLTCLVKGFYPSDIAVEWESNGQPENNYKTTPPVLDSDGSFFLYSKLTVDKSRWQQGNVFSCSVMHEALHNHYTQKSLSLSP
light: DIVMTQSPATLSLSPGERATLSCTSSQSVYHANWLSWFQQKPGQPPKLLIYWASTLAYGVPSRFSGSGSGTDFTLTISSLQPEDAATYYCAGGYGGGRYAFGQGTKVEIKRTVAAPSVFIFPPSDEQLKSGTASVVCLLNNFYPREAKVQWKVDNALQSGNSQESVTEQDSKDSTYSLSSTLTLSKADYEKHKVYACEVTHQGLSSPVTKSFNRGEC
notes: Substitutions introduced into M103205H795-SG1; positions in EU numbering
B2: M103205H795-MY279 (heavy chain) with M103202L889-SK1 (light chain) (antibody, human IgG1, kappa, name in EU numbering)
heavy: B1 heavy with M238H
light: B1 light
notes: as for B1
B3: M103205H795-MY292 (heavy chain) with M103202L889-SK1 (light chain) (antibody, human IgG1, kappa, name in EU numbering)
heavy: B1 heavy with M238G, G239Y, P398M
light: B1 light
notes: as for B1
B4: M103205H795-MY293 (heavy chain) with M103202L889-SK1 (light chain) (antibody, human IgG1, kappa, name in EU numbering)
heavy: B1 heavy with M238G, G239Y, D270E, P398K
light: B1 light
notes: as for B1
B5: M103205H795-MY312 (heavy chain) with M103202L889-SK1 (light chain) (antibody, human IgG1, kappa, name in EU numbering)
heavy: B1 heavy with M238T, D270E, L297Q, K328T, P398M
light: B1 light
notes: as for B1
B6: M103205H795-MY310 (heavy chain) with M103202L889-SK1 (light chain) (antibody, human IgG1, kappa, name in EU numbering)
heavy: B1 heavy with M238T, D270E, L297Q, K328T
light: B1 light
notes: as for B1
B7: M103205H795-MY311 (heavy chain) with M103202L889-SK1 (light chain) (antibody, human IgG1, kappa, name in EU numbering)
heavy: B1 heavy with M238T, D270E
light: B1 light
notes: as for B1
B8: M103205H795-MY142 (heavy chain) with M103202L889-SK1 (light chain) (antibody, human IgG1, kappa, name in EU numbering)
heavy: B1 heavy with M238E, D270E, L297Q, K332A, P398M
light: B1 light
notes: as for B1
B9: M103205H795-MY199/M103202L889-SK1 (antibody, human IgG1, kappa, name in EU numbering)
heavy: B1 heavy with M238N, D270E, L297Q
light: B1 light
notes: substitutions in EU numbering, introduced into M103205H795-SG1
B10: M103205H795-MY518/M103202L889-SK1 (antibody)
heavy: B1 heavy with L237W, M238N, K328T
light: B1 light
B11: M103205H795-MY174/M103202L889-SK1 (antibody, human IgG1, kappa, name in EU numbering)
heavy: B1 heavy with M238N, D270E, L297Q, K332A, P398I
light: B1 light
notes: EU numbering
B12: M103205H795-MY206/M103202L889-SK1 (antibody, human IgG1, kappa, name in EU numbering)
heavy: B1 heavy with M238N, S241V
light: B1 light
notes: as for B9
B13: MS_M103205H795-SG1/M103202L889-SK1 (antibody, human IgG1, kappa)
heavy: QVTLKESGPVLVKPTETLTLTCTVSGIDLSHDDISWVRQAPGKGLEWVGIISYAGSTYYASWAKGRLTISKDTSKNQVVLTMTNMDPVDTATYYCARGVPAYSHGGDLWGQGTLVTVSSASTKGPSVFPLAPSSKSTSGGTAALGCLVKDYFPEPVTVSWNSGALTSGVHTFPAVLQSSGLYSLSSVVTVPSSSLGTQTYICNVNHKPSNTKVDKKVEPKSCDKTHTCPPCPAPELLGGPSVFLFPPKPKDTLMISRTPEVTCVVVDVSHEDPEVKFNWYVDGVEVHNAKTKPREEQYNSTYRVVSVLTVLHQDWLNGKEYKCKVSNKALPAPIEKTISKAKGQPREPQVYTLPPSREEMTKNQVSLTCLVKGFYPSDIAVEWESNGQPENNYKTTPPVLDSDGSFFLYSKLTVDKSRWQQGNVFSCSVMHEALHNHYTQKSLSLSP
light: B1 light
notes: parent antibody of the Fc variants; human heavy chain constant region SG1; also called MS1032LO06-SG1
B14: M103205H795-MY518/M103202L889-SK1 (antibody)
heavy: B1 heavy with L237W, M238N, K328T
light: B1 light
notes: Fc variant of MS1032LO06-SG1; EU numbering
B15: M103205H795-MY350/M103202L889-SK1 (antibody, human IgG1, kappa, name in EU numbering)
heavy: B1 heavy with L237W, M238N, D270E, L297Q, P398M
light: B1 light
notes: Fc variant of MS1032LO06-SG1; positions in EU numbering
B16: GpH7-B3 A327N / GpL16-k0 (antibody, human IgG1, kappa)
heavy: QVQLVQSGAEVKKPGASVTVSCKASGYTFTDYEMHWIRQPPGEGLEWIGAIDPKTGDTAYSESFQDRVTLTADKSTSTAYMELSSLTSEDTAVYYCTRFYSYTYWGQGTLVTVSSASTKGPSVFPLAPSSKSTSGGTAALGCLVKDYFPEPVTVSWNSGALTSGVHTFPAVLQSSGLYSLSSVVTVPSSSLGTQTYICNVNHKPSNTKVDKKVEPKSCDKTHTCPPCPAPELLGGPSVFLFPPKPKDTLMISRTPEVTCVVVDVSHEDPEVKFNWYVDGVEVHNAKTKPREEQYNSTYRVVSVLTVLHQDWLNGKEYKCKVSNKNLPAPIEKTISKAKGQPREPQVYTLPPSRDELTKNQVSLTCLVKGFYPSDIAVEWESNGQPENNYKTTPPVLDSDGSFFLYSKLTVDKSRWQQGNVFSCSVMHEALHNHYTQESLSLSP
light: DIVMTQSPLSLPVTPGEPASISCQASESLVHSNRNTYLHWYLQKPGQSPQLLIYKVSNRFSGVPDRFSGSGSGTDFTLKISRVEAEDVGVYYCSQNTHVPPTFGQGTKVEIERTVAAPSVFIFPPSDEQLKSGTASVVCLLNNFYPREAKVQWKVDNALQSGNSQESVTEQDSKDSTYSLSSTLTLSKADYEKHKVYACEVTHQGLSSPVTKSFNRGEC
notes: also called B3 variant A327N
B17: GpH7-B3 A330K / GpL16-k0 (antibody, human IgG1, kappa)
heavy: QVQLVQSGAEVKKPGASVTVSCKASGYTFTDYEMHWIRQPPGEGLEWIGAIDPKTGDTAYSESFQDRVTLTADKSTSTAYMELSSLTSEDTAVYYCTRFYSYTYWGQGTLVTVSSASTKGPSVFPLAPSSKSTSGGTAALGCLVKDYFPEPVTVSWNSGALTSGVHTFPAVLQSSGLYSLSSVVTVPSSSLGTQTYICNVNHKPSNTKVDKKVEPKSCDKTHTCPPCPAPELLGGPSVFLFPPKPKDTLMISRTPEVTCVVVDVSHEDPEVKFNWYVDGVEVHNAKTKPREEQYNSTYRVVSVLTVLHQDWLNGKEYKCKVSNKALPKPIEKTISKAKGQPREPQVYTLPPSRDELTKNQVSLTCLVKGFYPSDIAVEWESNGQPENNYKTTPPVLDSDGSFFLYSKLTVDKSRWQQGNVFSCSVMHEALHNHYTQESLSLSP
light: B16 light
notes: also called B3 variant A330K
B18: GpH7-B3 A330R / GpL16-k0 (antibody, human IgG1, kappa)
heavy: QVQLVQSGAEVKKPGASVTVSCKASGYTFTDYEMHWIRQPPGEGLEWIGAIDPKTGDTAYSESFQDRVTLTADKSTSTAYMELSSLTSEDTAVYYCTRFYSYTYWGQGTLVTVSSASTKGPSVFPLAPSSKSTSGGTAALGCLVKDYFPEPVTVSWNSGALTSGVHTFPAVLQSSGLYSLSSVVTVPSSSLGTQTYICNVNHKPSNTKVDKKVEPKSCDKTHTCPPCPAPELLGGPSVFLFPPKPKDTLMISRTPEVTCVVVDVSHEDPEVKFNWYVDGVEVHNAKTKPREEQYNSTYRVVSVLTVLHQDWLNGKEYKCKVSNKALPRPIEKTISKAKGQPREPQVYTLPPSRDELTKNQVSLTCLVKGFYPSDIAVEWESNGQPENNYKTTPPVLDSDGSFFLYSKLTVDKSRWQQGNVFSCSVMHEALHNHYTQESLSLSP
light: B16 light
notes: also called B3 variant A330R
B19: GpH7-B3 P271E / GpL16-k0 (antibody, human IgG1, kappa)
heavy: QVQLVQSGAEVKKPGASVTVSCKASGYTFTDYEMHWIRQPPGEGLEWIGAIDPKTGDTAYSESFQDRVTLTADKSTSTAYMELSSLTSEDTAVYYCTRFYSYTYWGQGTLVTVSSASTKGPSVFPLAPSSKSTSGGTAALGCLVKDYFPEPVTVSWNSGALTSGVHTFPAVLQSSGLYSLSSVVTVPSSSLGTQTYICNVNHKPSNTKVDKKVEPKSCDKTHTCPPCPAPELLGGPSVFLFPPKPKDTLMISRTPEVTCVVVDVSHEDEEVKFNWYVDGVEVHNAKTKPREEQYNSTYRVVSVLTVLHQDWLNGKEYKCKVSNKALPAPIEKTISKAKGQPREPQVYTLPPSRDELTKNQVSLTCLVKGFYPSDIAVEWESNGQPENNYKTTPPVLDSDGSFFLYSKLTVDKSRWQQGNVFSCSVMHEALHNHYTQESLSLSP
light: B16 light
notes: also called B3 variant P271E

Molecular target: T1, cynomolgus monkey FcγRIIIaS extracellular domain with C-terminal His-tag (cynomolgus monkey, UniProt Q8SPW2 21-206 at identity 1.00))
T1 construct: also called cyno FcγRIIIaS; FcgRIIIaS
T1 chain: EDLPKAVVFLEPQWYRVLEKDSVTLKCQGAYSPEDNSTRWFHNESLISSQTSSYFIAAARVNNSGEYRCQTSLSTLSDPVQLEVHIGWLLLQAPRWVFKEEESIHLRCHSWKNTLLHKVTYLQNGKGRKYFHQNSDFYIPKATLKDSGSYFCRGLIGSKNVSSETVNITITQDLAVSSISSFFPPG
Assay: SPR; KD of SG1 / KD of variant
Description: (§1) The kinetic analysis of interactions between these antibodies and FcγR was carried out using BIACORE® T200 or BIACORE® 4000 (GE Healthcare). HBS-EP+ (GE Healthcare) was used as the running buffer, and the measurement temperature was set to 25° C. […] After the measurement, the antibody captured on the chip was washed off by allowing reaction with 10 mM glycine-HCl, pH1.5 and 25 mM NaOH so that the chip was regenerated and used repeatedly. The sensorgrams obtained as measurement results were analyzed by the 1:1 Langmuir binding model using the BIACORE® Evaluation Software to calculate the binding rate constant ka (L/mol/s) and dissociation rate constant kd (1/s), and the dissociation constant KD (mol/L) was calculated from these values. […] Regarding such interactions, KD values were calculated using the following 1:1 binding model described in BIACORE® T100 Software Handbook BR1006-48 Edition AE.

Binder | KD fold (SG1 = 1)
B1 | 0.49 fold
B2 | 0.15 fold
B3 | 0.09 fold
B4 | 0.09 fold
B5 | 0.55 fold
B6 | 0.2 fold
B7 | 0.15 fold
B8 | 2.57 fold

Molecular target: T2, cynomolgus monkey FcγRIIIaS extracellular domain with C-terminal His-tag (cynomolgus monkey, UniProt A3RFZ7 21-206 (rhesus entry))
T2 construct: also called cyno FcgRIIIaS; cynoFcγRIIIaS; not shown: His-tag added to C-terminus
Assay: SPR Biacore, antibody captured, FcgR analyte
Description: as §1

Binder | KD fold (SG1 = 1) | Kd
B9 | 0.09 fold | –
B10 | 0.09 fold | –
B11 | 0.14 fold | 2.5 µM
B12 | 0.11 fold | –

Molecular target: T3, cynomolgus monkey FcγRIIIaS extracellular domain with C-terminal His-tag (cynomolgus monkey, UniProt A3RFZ7 21-206 (rhesus entry))
T3 construct: also called cyno FcgRIIIaS; cynoFcγRIIIaS; not shown: His-tag added to the C-terminus
Assay: SPR (BIACORE), antibody captured, FcgR analyte
Description: as §1

Binder | Kd
B13 | 0.56 µM
B14 | 4.2 µM
B15 | 6.6 µM

Molecular target: T4, human FcγRIIaH extracellular domain, His-tagged (human, UniProt P12318 34-217)
T4 construct: also called human FcgRIIaH; FcγRIIa type H
T4 sequence: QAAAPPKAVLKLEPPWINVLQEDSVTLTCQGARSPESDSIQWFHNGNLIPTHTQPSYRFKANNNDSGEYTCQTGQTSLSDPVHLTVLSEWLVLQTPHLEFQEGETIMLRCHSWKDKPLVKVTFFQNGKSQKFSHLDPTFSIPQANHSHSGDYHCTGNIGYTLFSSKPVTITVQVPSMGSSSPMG
Assay: SPR (Biacore), 25C, FcgR bound per antibody captured

Binder | Binding to human FcgRs (parent B3 = 100)
B16 | 95
B17 | 121
B18 | 116
B19 | 90

Molecular target: T5, human FcγRIIaR extracellular domain, His-tagged (human, UniProt P12318 34-217)
T5 construct: also called human FcgRIIaR; FcγRIIa type R
T5 chain: T4 sequence with H134R
Assay: as above

Binder | Binding to human FcgRs (parent B3 = 100)
B16 | 48
B17 | 127
B18 | 123
B19 | 51

Molecular target: T6, human FcγRIIIaV extracellular domain, His-tagged (human, UniProt P08637 17-208)
T6 construct: also called human FcgRIIIaV
T6 sequence (P08637 17-208 F176V): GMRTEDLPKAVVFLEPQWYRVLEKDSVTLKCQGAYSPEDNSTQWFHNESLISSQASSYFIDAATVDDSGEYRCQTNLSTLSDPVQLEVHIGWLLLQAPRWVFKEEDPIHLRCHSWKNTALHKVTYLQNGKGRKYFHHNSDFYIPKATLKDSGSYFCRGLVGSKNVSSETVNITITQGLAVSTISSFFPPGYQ
Assay: as above

Binder | Binding to human FcgRs (parent B3 = 100)
B16 | 32
B17 | 86
B18 | 73
B19 | 87
